Assay results reported in publication PMC8351524 (2021).

Target: T1, APOC2 (Homo sapiens, UniProt P02655)
T1 chain: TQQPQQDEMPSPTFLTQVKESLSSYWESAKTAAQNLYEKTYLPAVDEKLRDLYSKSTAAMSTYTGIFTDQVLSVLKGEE
Assay: biolayer interferometry

- Kd: 128 nM
B1: CD36 (protein)
chain: GCDRNCGLIAGAVIGAVLAVFGGILMPVGDLLIQKTIKKQVVLEEGTIAFKNWVKTGTEVYRQFWIFDVQNPQEVMMNSSNIQVKQRGPYTYRVRFLAKENVTQDAEDNTVSFLQPNGAIFEPSLSVGTEADNFTVLNLAVAAASHIYQNQFVQMILNSLINKSKSSMFQVRTLRELLWGYRDPFLSLVPYPVTTTVGLFYPYNNTADGVYKVFNGKDNISKVAIIDTYKGKRNLSYWESHCDMINGTDAASFPPFVEKSQVLQFFSSDICRSIYAVFESDVNLKGIPVYRFVLPSKAFASPVENPDNYCFCTEKIISKNCTSYGVLDISKCKEGRPVYISLPHFLYASPDVSEPIDGLNPNEEEHRTYLDIEPITGFTLQFAKRLQVNLLVKPSEKIQVLKNLKRNYIVPILWLNETGTIGDEKANMFRSQVTGKINLLGLIEMILLSVGVVMFVAFMISYCACRSKTIK
